The values that follow come from publication PMC11560936.

Read-outs that look alike come from different tables or passages of the source.

One may read the Kd as the constant that tells how readily two partners part at equilibrium. Read a high Kd as a looser complex. One may read the stoichiometry N as a count of units in the complex or per binding partner.

Common to all, as to assay: ITC
The target in assay [1] is Penaeus monodon Rab7 wild type (PmRab7-WT) (Penaeus monodon) (UniProt Q00P14).
Assay [2] has the same target. This is another data set of the same source.
Assay [3] has as its target Penaeus monodon Rab7 Q67L mutant (PmRab7-Q67L) (Penaeus monodon) (UniProt Q00P14).
Assay [4] deals with Penaeus monodon Rab7 L129F mutant (PmRab7-L129F) (Penaeus monodon) (UniProt Q00P14).
In assay [5] the target is Penaeus monodon Rab7 wild type (PmRab7-WT) (Penaeus monodon) (UniProt Q00P14). The source holds these as a separate data set.
Assay [6] concerns the target Penaeus monodon Rab7 T22N mutant (PmRab7-T22N) (Penaeus monodon) (UniProt Q00P14).
Assay [7] addresses Penaeus monodon Rab7 wild type (PmRab7-WT) (Penaeus monodon) (UniProt Q00P14). The source holds these as a separate data set.
The target is the same in assay [8]. This is another data set of the same source.

In the case of “White spot syndrome virus envelope protein VP28 with His6 tag (VP28-His6) (natural protein)”, the Kd in assay [1] is 352 nM; in assay [2] it was 826 nM; in assay [3], 1990 nM; in assay [4], 128 nM; in assay [5], 22.5 nM; in assay [6], 334 nM. The Kd is 924 nM in assay [7] and 1920 nM in assay [8]. The dH was -7.23 kcal/mol in assay [1]; -17 kcal/mol in assay [2]; -33 kcal/mol in assay [3]; -25.7 kcal/mol in assay [4]; -22.1 kcal/mol in assay [5]; -20 kcal/mol in assay [6]. The dH in assay [7] is -15.4 kcal/mol; in assay [8], -20.2 kcal/mol. Further, the stoichiometry N in assay [1] was 0.682 VP28:Rab7; in assay [2], 0.738 VP28:Rab7; in assay [3] it was 0.582 VP28:Rab7; in assay [4], 0.519 VP28:Rab7; in assay [5], 0.543 VP28:Rab7; in assay [6], 0.625 VP28:Rab7. Besides, the stoichiometry N is 0.795 VP28:Rab7 in assay [7] and 0.703 VP28:Rab7 in assay [8].
